From the supplement of paper PMC10724198
± gives the standard deviation of the averaged measurements.

Legend:
[1] = system: Saccharomyces cerevisiae; experiment: protein stability index of tFT-peptide fusion (C-terminal peptide) (PSI (0-1 scale)); higher = more stable (slower turnover)
Procedure: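 MPS profiling in S. cerevisiae of the tFT-X12 degron library: putative degron peptides plus stable controls, 12 aa, fused to the C-terminus of a sfGFP-mCherry timer. Cells are FACS-sorted into 8 mCherry/sfGFP bins and deep-sequenced. PSI runs from 0 (unstable) to 1 (stable). Backgrounds are wild type, das1Δ and doa10Δ at 30 °C, and wild type, das1Δ, cdc34-1 and cdc53-1 at 37 °C; 2-3 technical replicates each.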

[2] = system: Saccharomyces cerevisiae; experiment: as above; conditions: genetic background: wild type; temperature: 30 C
[3] = genetic background: cdc34-1, temperature: 37 C
[4] = genetic background: cdc53-1, temperature: 37 C
[5] = genetic background: das1 deletion, temperature: 30 C
[6] = genetic background: das1 deletion, temperature: 37 C
[7] = genetic background: doa10 deletion, temperature: 30 C
[8] = genetic background: wild type, temperature: 30 C
[9] = genetic background: wild type, temperature: 37 C
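Note: PSI is a weighted mean of sequencing reads over stability bins, variants kept only with over 10 reads, mCherry proximal and sfGFP distal, peptide attached via GGGS linker.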

Sequence	protein stability index [1, 3]	protein stability index [1, 4]	protein stability index [1, 5]	protein stability index [1, 6]	protein stability index [1, 7]	protein stability index [1, 8]	protein stability index [1, 9]	protein stability index [2]
IERGLMLTLCVH	0.0536 ± 0.009	0.0716 ± 0.028	0.172 ± 0.027	0.205 ± 0.0033	0.115 ± 0.013	0.156 ± 0.024	0.171 ± 0.0059	0.22 ± 0.014
IERLRLRTRIIC	0.469 ± 0.053	0.481 ± 0.049	0.423 ± 0.021	0.542 ± 0.0096	0.127 ± 0.015	0.131 ± 0.036	0.13441 ± 5e-06	0.2349 ± 0.0012
IFIVLDFRCVSS	0.302 ± 0.1	0.463 ± 0.024	0.256 ± 0.016	0.4371 ± 0.0012	0.243 ± 0.011	0.242 ± 0.043	0.381 ± 0.046	0.339 ± 0.016
IFLLFPFSWRIF	0.596 ± 0.042	0.6301 ± 0.0061	0.56 ± 0.039	0.694 ± 0.011	0.364 ± 0.027	0.376 ± 0.033	0.539 ± 0.036	0.446 ± 0.034
IFLLLRRIIALS	0.126 ± 0.0094	0.326 ± 0.044	0.411 ± 0.047	0.554 ± 0.023	0.0418 ± 0.017	0.0337 ± 0.0068	0.0499 ± 0.018	0.107 ± 0.12
IFPSRSLLAASA	0.403 ± 0.013	0.457 ± 0.062	0.339 ± 0.033	0.5192 ± 0.0019	0.317 ± 0.016	0.339 ± 0.025	0.48 ± 0.028	0.446 ± 0.0097
IFSFRWVLPFWL	0.611 ± 0.059	0.701 ± 0.008	0.6 ± 0.026	0.70093 ± 0.00061	0.2407 ± 0.00051	0.256 ± 0.04	0.424 ± 0.0043	0.365 ± 0.098
IHCLSIVVHGLS	0.527 ± 0.045	0.569 ± 0.047	0.471 ± 0.024	0.588 ± 0.0099	0.48 ± 0.016	0.475 ± 0.019	0.563 ± 0.027	0.499 ± 0.043
IHIFIIFRVQWK	0.176 ± 0.064	0.232 ± 0.036	0.179 ± 0.025	0.272 ± 0.018	0.163 ± 0.0023	0.156 ± 0.05	0.249 ± 0.03	0.227 ± 0.012
IHRSPLTLPLLV	0.526 ± 0.021	0.584 ± 0.023	0.461 ± 0.031	0.5726 ± 0.005	0.406 ± 0.014	0.435 ± 0.019	0.5383 ± 0.0043	0.468 ± 0.08
IIFCVRVVGGDL	0.449 ± 0.038	0.508 ± 0.0054	0.371 ± 0.029	0.5566 ± 0.00057	0.332 ± 0.0066	0.38 ± 0.018	0.5288 ± 0.0041	0.46 ± 0.04
IIIRVTILCEQF	0.135 ± 0.097	0.176 ± 0.0098	0.146 ± 0.02	0.258 ± 0.018	0.113 ± 0.0089	0.137 ± 0.0053	0.212 ± 0.011	0.241 ± 0.0066
IILAIRLLVDTL	0.0479 ± 0.026	0.179 ± 0.012	0.146 ± 0.025	0.266 ± 0.011	0.12 ± 0.0039	0.132 ± 0.025	0.238 ± 0.026	0.248 ± 0.021
IILRPQYVHYFL	0.532 ± 0.035	0.594 ± 0.027	0.497 ± 0.025	0.5597 ± 0.00026	0.482 ± 0.023	0.484 ± 0.025	0.5457 ± 0.00084	0.454 ± 0.018
IIVLNIGSVIFC	0.456 ± 0.063	0.5884 ± 0.002	0.397 ± 0.018	0.5716 ± 0.0053	0.387 ± 0.0076	0.4057 ± 0.0017	0.549 ± 0.028	0.4951 ± 0.0022
IKSLLGCWHKHY	0.679 ± 0.017	0.732 ± 0.0077	0.647 ± 0.031	0.7145 ± 0.0066	0.279 ± 0.028	0.303 ± 0.057	0.574 ± 0.04	0.479 ± 0.018
ILCVEFFVSVSV	0.0684 ± 0.008	0.2486 ± 0.0024	0.163 ± 0.025	0.277 ± 0.0064	0.136 ± 0.01	0.16 ± 0.0059	0.23 ± 0.021	0.218 ± 0.0027
ILFVCVCVLHVG	0.112 ± 0.0052	0.198 ± 0.012	0.17 ± 0.027	0.307 ± 0.0048	0.121 ± 0.013	0.141 ± 0.019	0.252 ± 0.021	0.242 ± 0.025
INKRDARIHLLM	0.658 ± 0.012	0.6975 ± 0.0064	0.623 ± 0.023	0.701 ± 0.00084	0.32 ± 0.034	0.382 ± 0.029	0.547 ± 0.0084	0.47 ± 0.0047
IPHLNCCCCLVR	0.527 ± 0.013	0.497 ± 0.023	0.334 ± 0.035	0.5878 ± 0.0048	0.272 ± 0.0053	0.328 ± 0.02	0.5503 ± 0.0019	0.442 ± 0.052

Sequence	protein stability index [1, 3]	protein stability index [1, 4]	protein stability index [1, 5]	protein stability index [1, 6]	protein stability index [1, 7]	protein stability index [1, 8]	protein stability index [1, 9]	protein stability index [2]
IRDGPWKRVLVV	0.599 ± 0.031	0.596 ± 0.01	0.48 ± 0.028	0.642 ± 0.0055	0.125 ± 0.0086	0.157 ± 0.015	0.245 ± 0.0076	0.348 ± 0.051
IRVLACFLFAVS	0.202 ± 0.016	0.305 ± 0.017	0.172 ± 0.0094	0.32 ± 0.0072	0.095 ± 0.0081	0.12 ± 0.022	0.247 ± 0.025	0.17 ± 0.01
IVFGWGVEWGRL	0.757 ± 0.038	0.803 ± 0.027	0.692 ± 0.014	0.7973 ± 0.0035	0.691 ± 0.038	0.701 ± 0.021	0.783 ± 0.017	0.69 ± 0.28
IVLCVFTVDSDF	0.36 ± 0.0079	0.478 ± 0.058	0.314 ± 0.024	0.5441 ± 0.0044	0.266 ± 0.006	0.291 ± 0.021	0.5126 ± 0.0039	0.407 ± 0.0073
IVSFRLDLSLAV	0.532 ± 0.069	0.5949 ± 0.0024	0.452 ± 0.023	0.55891 ± 0.00017	0.448 ± 0.014	0.458 ± 0.02	0.5467 ± 0.0024	0.534 ± 0.051
IVWVSSFVCRSV	0.508 ± 0.082	0.574 ± 0.02	0.436 ± 0.0072	0.524 ± 0.0075	0.447 ± 0.015	0.4257 ± 0.003	0.516 ± 0.025	0.43 ± 0.044
IWVVIISDSRVG	0.33375 ± 0.00011	–	0.283 ± 0.059	0.488 ± 0.02	0.247 ± 0.019	0.342 ± 0.094	0.4636 ± 0.0027	0.352 ± 0.0071
IWVWMLSVWLGG	0.303 ± 0.016	0.3731 ± 0.002	0.291 ± 0.021	0.409 ± 0.022	0.273 ± 0.021	0.288 ± 0.017	0.407 ± 0.018	0.349 ± 0.013
IYFFVLRLRLCG	0.278 ± 0.004	0.291 ± 0.021	0.235 ± 0.029	0.428 ± 0.0065	0.16 ± 0.0036	0.162 ± 0.015	0.253 ± 0.0032	0.233 ± 0.1
KIHILVVQIATR	0.0402 ± 0.0097	0.134 ± 0.0054	0.0541 ± 0.0098	0.1391 ± 0.00019	0.0346 ± 0.0032	0.0319 ± 0.013	0.114 ± 0.0046	0.0736 ± 0.038
KKNITRLKNKMT	0.535 ± 0.032	0.676 ± 0.033	0.678 ± 0.031	0.691 ± 0.059	0.212 ± 0.045	0.199 ± 0.093	0.392 ± 0.086	0.416 ± 0.14
KLLISLTWFCVL	0.395 ± 0.036	0.476 ± 0.014	0.373 ± 0.029	0.527 ± 0.019	0.165 ± 0.0032	0.192 ± 0.028	0.3344 ± 0.00067	0.284 ± 0.092
KLRMGRYIVRII	0.6637 ± 0.0034	0.661 ± 0.041	0.569 ± 0.022	0.6655 ± 0.0023	0.152 ± 0.024	0.135 ± 0.019	0.242 ± 0.012	0.259 ± 0.0076
KVFWRPAWVAEV	0.6563 ± 0.0016	0.7475 ± 0.0067	0.631 ± 0.016	0.733 ± 0.0084	0.237 ± 0.011	0.28 ± 0.034	0.512 ± 0.013	0.371 ± 0.026
LAVFSSPELSFP	0.727 ± 0.012	0.788 ± 0.015	0.6631 ± 0.0019	0.761 ± 0.013	0.66 ± 0.034	0.676 ± 0.0088	0.777 ± 0.0036	0.756 ± 0.024
LCFTSVFTLFIC	0.288 ± 0.028	0.469 ± 0.026	0.382 ± 0.026	0.511 ± 0.006	0.0848 ± 0.017	0.0664 ± 0.0089	0.0756 ± 0.015	0.101 ± 0.024
LCLLPVCLWDVG	0.451 ± 0.026	0.513 ± 0.016	0.447 ± 0.0076	0.501 ± 0.0082	0.453 ± 0.0074	0.439 ± 0.017	0.49 ± 0.0072	0.461 ± 0.023
LCSCAVVICCSL	0.445 ± 0.0054	0.4359 ± 0.0021	0.299 ± 0.031	0.4631 ± 0.0044	0.274 ± 0.0047	0.309 ± 0.0072	0.441 ± 0.019	0.377 ± 0.04
LCSVWVGIVLLC	0.156 ± 0.011	0.236 ± 0.045	0.23 ± 0.02	0.313 ± 0.014	0.0996 ± 0.0034	0.0964 ± 0.013	0.107 ± 0.019	0.165 ± 0.047
